Molecular target: amino-terminal hexahistidine-tagged EttA-EQ2 (E. coli) (UniProt P0A9W3)
Test: pull-down

E. coli 70S ribosome (from UniProt P0A7L0 1-234; P62399 1-179; P0A7N9 1-55; P02359 1-179; P0A7R1 1-149) (complex)
stoichiometry N (EttA-EQ2:70S ribosome): 1

Source: PMC4143144
